Test results taken from the supplement of paper PMC6755084.

Tested on: F1*sub RNA substrate (template-directed ligation)
Experiment: fraction ligated after 30 min (ligated reads / total reads); higher = more ligase activity; sequences stand for … in GAGACCGCAACTGAAAAGTTGT…AGTTCTGCACGTAGAAGCAAAAGGC
Conditions: 42 °C
Procedure: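 Chip-synthesised pool of F1* ligase ribozyme variants (all single and double substitutions, single, double and triple deletions in the catalytic core and GAA bulge, plus designed variants) was transcribed with T7 and reacted as a pool with excess substrate F1*sub for 30 min at 42 C in 50 mM EPPS pH 8.5, 25 mM MgCl2. Ligated and unligated bands were separated by PAGE, barcoded by RT and deep sequenced; fraction ligated = ligated reads / total reads per variant, relative activity = FL / FL of wild type (0.826). Sequences are the DNA template of the ribozyme.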

Sequence | fraction ligated
TTACTTGTCGTAAGCACTTTGGATGGGTTGA [3d287] | 0.00788
TATCACTTGTCGTAAGAACTTTGATGGGTTGA [2d256] | 0.79
TCACTTGTCGTAAGAACTTTGGATGGGTTGA [3d14] | 0.399
TATCCTTGTCGTAAGACACTTTGGATGGTTA [3d1117] | 0.0143
TACACTGTCGTAAGACATTTGGATGGGTTGA [3d577] | 0.617
TATCCTTGTCTAAGACACTTTGGATGGGTTA [3d1027] | 0.394
TACCTTGTCGAAGACACTTTGGATGGGTTGA [3d533] | 0.676
TACACTTGTCGTAAGCACTTGGATGGGTTGA [3d685] | 0.0451
TTCCTTGCGTAAGACACTTTGGATGGGTTGA [3d300] | 0.779
TATCACTTGTCTAGACACTTTGGTGGGTTGA [3d1831] | 0.195
TATCACTGTCGAAGACACTTTGGATGGGTTG [3d1384] | 0.829
TACACTTGTCGAAACACTTTGGATGGGTTGA [3d647] | 0.16
TATCACTTGTCTAAGACCTTTGGTGGGTTGA [3d1866] | 0.227
TATCACTTTCGTAGACACTTTGATGGGTTGA [3d1513] | 0.783
TATCACTTGTCTAAGACACTTTGATGGGTTG [3d1890] | 0.751
TATCTTGTCGTAAGACACTTTGATGGGTTGA [3d752] | 0.763
TACACTTGTCGTAGACACTTTGGATGGGTTGA [2d56] | 0.617
TATCCTTTCGTAAGACACTTTGGATGGTTGA [3d981] | 0.0298
TATCACTTGTCGTAAACCTTTGATGGGTTGA [3d2068] | 0.672
TATCCTTGTCGTAAGAACTTTGGATGGGTTA [3d1081] | 0.351
TACACTGTCGTAAGACACTTTGGATGGGTTGA [2d50] | 0.432
TATCCTGTCGTAAACACTTTGGATGGGTTGA [3d956] | 0.796

Sequence | fraction ligated
TATCATTTCGTAAGCACTTTGGATGGGTTGA [3d1145] | 0.786
TATCCTTGTCGTAAGACACTTGGATGGTTGA [3d1101] | 0.0445
TATCACTTGTCGTAAACACTGGATGGGTTGA [3d2081] | 0.787
TACACTTGTGTAAGACACTTTGGATGGGTTA [3d630] | 0.0333
TATCACTTGTCGTAAGCACTTGGATGGGTTG [3d2134] | 0.76
TATCACTTGTCGTAAGACACTGATGGGTTGA [3d2232] | 0.0313
TATCATTGTCGAAGACATTTGGATGGGTTGA [3d1206] | 0.794
TAACTTGTCGTAAGACACTTTGGATGGGTTG [3d527] | 0.153
ACACTTGTCTAAGACACTTTGGATGGGTTGA [3d31] | 0.441
ATCACTTGTCGTAAGACACTTTGGATGGGTTG [2d24] | 0.769
TATCATTGTCGTAGACACTTTGGATGGGTTG [3d1226] | 0.799
TATCACTTGCGAGACACTTTGGATGGGTTGA [3d1613] | 0.821
TATCACTTGTCTAAGACATTTGGTGGGTTGA [3d1873] | 0.0508
ATCACTTGTCGTAAACACTTTGGTGGGTTGA [3d216] | 0.0249
TACACTTGTCGTAAGACACTTTGGTGGTTGA [3d728] | 0.0111
TATCACTTGCGTAAGACCTTTGATGGGTTGA [3d1668] | 0.789
TATACTTGTCGTAACACTTTGGATGGGTTGA [3d871] | 0.27
TATCACTTGTCGTAAGACACTTGGATGGTTG [3d2252] | 0.036
TATCACTTGTCGTAAGACACTTTGGGGGTTA [3d2271] | 0.0237
TATCATTGTCGTAAGACATTTGGAGGGTTGA [3d1265] | 0.23
TATCACGTCGTAAGACACTTTGGTGGGTTGA [3d1306] | 0.721
TATCACTGCGTAAGACACTTTGGATGGGTTGA [2d130] | 0.851

Sequence | fraction ligated
ATCACTTGTCGAAGACACTTTGGATGGGTTG [3d197] | 0.795
TATCACTTGTCGTAAGACACTTGGATGGGTTA [2d281] | 0.756
TATCCTTTCGTAAGACACTTTGATGGGTTGA [3d978] | 0.77
TATCATTGTCGTAAGACACTTTGGAGGGTTA [3d1287] | 0.0162
TATCACTTTCGTAAACACTTTGGAGGGTTGA [3d1525] | 0.0183
TATCACTTGTCTAAGACCTTTGGAGGGTTGA [3d1867] | 0.202
TATCACTTGCGAAGACACTTTGGATGGGTTG [3d1625] | 0.824
ATCACTGTCGTAAGCACTTTGGATGGGTTGA [3d113] | 0.749
TATCACTTGTCGTAAGAACTTTGTGGGTTGA [3d2167] | 0.0101
TATCACTTGTCGTAACACTTTGGATGGTTGA [3d2000] | 0.0413
TATCCTTGTCTAAGACACTTGGATGGGTTGA [3d1022] | 0.764
TACACTTTGTAAGACACTTTGGATGGGTTGA [3d585] | 0.0938
TATCACTTGCGTAAGAACTTTGATGGGTTGA [3d1661] | 0.853
TATCACTTGTCGTAAACATTGGATGGGTTGA [3d2074] | 0.804
TACACTGTCGTAAGACACTTTGATGGGTTGA [3d579] | 0.279
TATCCTTGTCGTAAGCACTTTGGAGGGTTGA [3d1071] | 0.0111
TATCACTGTCGTAAGACCTTGGATGGGTTGA [3d1426] | 0.809
ATCACTTGTCGTAAGACACTTTGGATGGTTG [3d274] | 0.691
GTATCACTTGTCGTAAGACACTTTGGATGGTTGA [s35] | 0.242
TATACTGTCGTAAGACCTTTGGATGGGTTGA [3d787] | 0.765
TATCACTTGTGTAAGACATTTGATGGGTTGA [3d1780] | 0.494
TATCACTTGTCGTAAGACATTGGATGGGTTG [3d2213] | 0.797

Sequence | fraction ligated
TATCACTTGTCGAAACACTTTGGATGGGTTG [3d1924] | 0.817
TACATTGTCGTAAGACATTTGGATGGGTTGA [3d558] | 0.298
TATCCTTGTCGTAAACACTTTGGTGGGTTGA [3d1060] | 0.0666
TATCACTTGTCGTAAGACTTTGGAGGGTTGA [3d2110] | 0.0282
TATCACTTGTCGTAAGACACTTTGGTGGTTG [3d2274] | 0.0129
ACCTTGTCGTAAGACACTTTGGATGGGTTGA [3d25] | 0.616
ATCACTTGTGTAAGACACTTGGATGGGTTGA [3d164] | 0.719
TATCACTTGTCGTAGACACTTTGATGGGTTG [3d2047] | 0.754
TATCATTGTCGTAAGACCTTGGATGGGTTGA [3d1255] | 0.804
TATCATTGTCGTAAACACTTTGGTGGGTTGA [3d1232] | 0.0641
ATCCTTGTCGTAGACACTTTGGATGGGTTGA [3d73] | 0.758
ATACTTGTCGTAAGAACTTTGGATGGGTTGA [3d57] | 0.448
TATCACTTGTCGTAAGACCTTTGATGGGTTG [3d2195] | 0.513
TAACTTGTCGAAGACACTTTGGATGGGTTGA [3d514] | 0.112
TAACTTGTCGTAAGCACTTTGGATGGGTTGA [3d517] | 0.142
TATCCTTGTCTAAGAACTTTGGATGGGTTGA [3d1019] | 0.764
TATACTTGTCGTAAGACCTTTGGAGGGTTGA [3d914] | 0.0249
TATCACTTGTCGAAACACTTTGGATGGGTTA [3d1923] | 0.756
TATCCTTGTCGTAAGACATTTGATGGGTTGA [3d1091] | 0.775
TATCACTTTCTAAGACACTTTGATGGGTTGA [3d1487] | 0.77
TATCACTTGTGTAAGACACTTGGAGGGTTGA [3d1789] | 0.011
TATCCTTTCGTAAACACTTTGGATGGGTTGA [3d972] | 0.795

Sequence | fraction ligated
TATCATTGTCGTAAAACTTTGGATGGGTTGA [3d1227] | 0.787
TATCACTTGTCTAAGCACTTTGATGGGTTGA [3d1850] | 0.724
ATCCTTGTCGTAAGACACTTTGGATGGGTTG [3d85] | 0.716
TATACTTTCGTAAGACACTTTGGATGGGTTA [3d810] | 0.00702
TATCACTTGTCGTAGCACTTGGATGGGTTGA [3d2006] | 0.741
ATCCTTGCGTAAGACACTTTGGATGGGTTGA [3d69] | 0.768
TATCATTTCGTAAACACTTTGGATGGGTTGA [3d1144] | 0.806
TATCACTGTCGTAAGACACTTTGGTGGGTTA [3d1455] | 0.0411
TATCACTTGTGTAGACACTTGGATGGGTTGA [3d1737] | 0.826
TACCTTGTCGTAAGAACTTTGGATGGGTTGA [3d537] | 0.253
TATCACTTGTGAAGACACTTGGATGGGTTGA [3d1724] | 0.801
TATCACTTGTGTAAGACACTTGGATGGGTTG [3d1792] | 0.801
TACCTTGTCGTAAGACACTTGGATGGGTTGA [3d540] | 0.746
ATCATTGCGTAAGACACTTTGGATGGGTTGA [3d88] | 0.755
TTCACTTGCGTAAGCACTTTGGATGGGTTGA [3d376] | 0.804
ATACTTGTCGTAAGACACTTGGATGGGTTGA [3d60] | 0.473
TATCACTTGTGTAGACACTTTGGATGGTTGA [3d1741] | 0.252
TATCACTTGTGTAAGACATTTGGATGGTTGA [3d1783] | 0.169
TATCATGTCGTAAGACATTTGGATGGGTTGA [3d1132] | 0.801
TATCCTTGTCGTAGACATTTGGATGGGTTGA [3d1047] | 0.768
